# Test results from publication PMC10590275 (Nature structural & molecular biology, 2023).
# B1: human LIS1-SNAP (natural protein)
# chain: VLSQRQRDELNRAIADYLRSNGYEEAYSVFKKEAELDVNEELDKKYAGLLEKKWTSVIRLQKKVMELESKLNEAKEEFTSGGPLGQKRDPKEWIPRPPEKYALSGHRSPVTRVIFHPVFSVMVSASEDATIKVWDYETGDFERTLKGHTDSVQDISFDHSGKLLASCSADMTIKLWDFQGFECIRTMHGHDHNVSSVAIMPNGDHIVSASRDKTIKMWEVQTGYCVKTFTGHREWVRMVRPNQDGTLIASCSNDQTVRVWVVATKECKAELREHEHVVECISWAPESSYSSISEATGSETKKSGKPGPFLLSGSRDKTIKMWDVSTGMCLMTLVGHDNWVRGVLFHSGGKFILSCADDKTLRVWDYKNKRCMKTLNAHEHFVTSLDFHKTAPYVVTGSVDQTVKVWECR
# Tests used:
# [1] = molecular target: human dynein_(MOTOR)^MT-B (microtubule-bound mutant motor domain) (human | T. thermophilus); assay: mass photometry
# mass photometry = molecular target: the molecule itself; assay: mass photometry
binder,measurement,setting,value
B1,stoichiometry N,[1],1 LIS1 dimer per dynein_(MOTOR) monomer
same,stoichiometry N,mass photometry,2
